The results in this text go back to publication PMC4507180.

The target of data set [1] is T1, DndB (Salmonella enterica serovar Cerro 87) (UniProt E2D676).
T1 sequence: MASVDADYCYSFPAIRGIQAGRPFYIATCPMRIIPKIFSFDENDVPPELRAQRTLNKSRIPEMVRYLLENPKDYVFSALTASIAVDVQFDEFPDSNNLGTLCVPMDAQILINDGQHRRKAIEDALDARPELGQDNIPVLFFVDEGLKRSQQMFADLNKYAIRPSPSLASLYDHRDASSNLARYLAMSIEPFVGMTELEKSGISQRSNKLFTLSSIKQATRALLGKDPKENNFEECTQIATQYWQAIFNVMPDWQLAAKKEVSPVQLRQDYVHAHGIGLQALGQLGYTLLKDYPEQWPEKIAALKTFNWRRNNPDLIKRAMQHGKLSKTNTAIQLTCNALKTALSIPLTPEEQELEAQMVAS
The data set can be described thus: EMSA. Conditions: EMSA: 20 mM Tris-HCl pH 8.0, 50 mM KCl, 10 mM MgCl2, 5 mM EDTA, 10 mM DTT, 5% glycerol, room temperature 30 min, 20 nM DNA; footprinting: 25 C 30 min, 200 ng …. Background: A gel shift assay detects complexes by their altered migration in electrophoresis.

Data set [2] deals with T2, DndB C29S C29S (Salmonella enterica serovar Cerro 87) (UniProt E2D676).
T2 sequence: T1 sequence with C29S
In words: EMSA. Conditions: EMSA: 20 mM Tris-HCl pH 8.0, 50 mM KCl, 10 mM MgCl2, 5 mM EDTA, 10 mM DTT, 5% glycerol, room temperature 30 min, 20 nM DNA; footprinting: 25 C 30 min, 200 ng ….

The target in data set [3] is DndB protein of Salmonella enterica serovar Cerro 87 (Salmonella enterica serovar Cerro 87). The data set can be described thus: SEC; HiLoad 16/60 Superdex 200; 20 mM Tris-HCl pH 8.0, 150 mM NaCl; 0.7 mL/min; calibrated with myoglobin, ovalbumin, albumin, phosphorylase b, gamma-globulin; native mass 79 kDa. In general terms: In gel filtration, larger molecules generally elute earlier.

Substitutions are numbered along the chain they refer to.

With “GCTGTAATCCGTGTAAAAATCGAATGAATTGAGTTACGTGATATTTTACGTAATGCTTAATAAAATTTATAGTTTTTTTTATGTTTTACGTGATTTTTTGCGTACAGGGTTCCATATCTGAGA (double strand) [B1]”, the binding amounted to 300 nM in data set [1] and 90 nM in data set [2].
Turning to “DndB protein of Salmonella enterica serovar Cerro 87 (natural protein)”, the stoichiometry N (commonly the number of molecules, sites or subunits per partner or assembly) in data set [3] is 2.
